# From paper PMC3556581
# Target: parental cyclophilin A (CypA) (rhesus macaque; identical in sequence to human CypA) (UniProt P62940)
# Experiment: ITC
Substance,Kd [µM],dH [kcal/mol]
HIV-2 CA^N domain with CA Ala88 introduced (from UniProt P04590 136-279) (domain or fragment),8,
HIV-1 N-terminal capsid (CA^N) domain (domain or fragment),5,-6.05
